These are literature values, as cited in patent publication US10385327B2, “Enhanced E. coli for the production of fatty acids and method of producing the same” (University of Puerto Rico, priority 2012, dated 2019).

In data set [1] the test system is E. coli BL21-DE3-CodonPlus (RIL) cells. The following applies: previous work by others.
The conditions of data set [2]: literature value for FAS dehydratase construct.

B1: E. coli FabA dehydratase: DH enzyme involved in fatty acid biosynthesis in E. coli (protein, UniProt P0A6Q3 2-172, looked up)
3-hydroxydecanoyl-[acyl-carrie …: VDKRESYTKEDLLASGRGELFGAKGPQLPAPNMLMMDRVVKMTETGGNFDKGYVEAELDINPDLWFFGCHFIGDPVMPGCLGLDAMWQLVGFYLGWLGGEGKGRALGVGEVKFTGQVLPTAKKVTYRIHFKRIVNRRLIMGLADGEVLVDGRLIYTASDLKVGLFQDTSAF
Turning to B1, the “effect of overexpression on production of fatty acids in E. coli” value in data set [1] is “does not increase the production of fatty acids”.

B2: FAS 1-1168 construct: Fatty Acid Synthase construct of Pasta et al., 2007, literature comparator for dehydratase specific activity (protein, UniProt P49327 1-1168, looked up, fragment)
chain: MEEVVIAGMSGKLPESENLQEFWDNLIGGVDMVTDDDRRWKAGLYGLPRRSGKLKDLSRFDASFFGVHPKQAHTMDPQLRLLLEVTYEAIVDGGINPDSLRGTHTGVWVGVSGSETSEALSRDPETLVGYSMVGCQRAMMANRLSFFFDFRGPSIALDTACSSSLMALQNAYQAIHSGQCPAAIVGGINVLLKPNTSVQFLRLGMLSPEGTCKAFDTAGNGYCRSEGVVAVLLTKKSLARRVYATILNAGTNTDGFKEQGVTFPSGDIQEQLIRSLYQSAGVAPESFEYIEAHGTGTKVGDPQELNGITRALCATRQEPLLIGSTKSNMGHPEPASGLAALAKVLLSLEHGLWAPNLHFHSPNPEIPALLDGRLQVVDQPLPVRGGNVGINSFGFGGSNVHIILRPNTQPPPAPAPHATLPRLLRASGRTPEAVQKLLEQGLRHSQDLAFLSMLNDIAAVPATAMPFRGYAVLGGERGGPEVQQVPAGERPLWFICSGMGTQWRGMGLSLMRLDRFRDSILRSDEAVKPFGLKVSQLLLSTDESTFDDIVHSFVSLTAIQIGLIDLLSCMGLRPDGIVGHSLGEVACGYADGCLSQEEAVLAAYWRGQCIKEAHLPPGAMAAVGLSWEECKQRCPPGVVPACHNSKDTVTISGPQAPVFEFVEQLRKEGVFAKEVRTGGMAFHSYFMEAIAPPLLQELKKVIREPKPRSARWLSTSIPEAQWHSSLARTSSAEYNVNNLVSPVLFQEALWHVPEHAVVLEIAPHALLQAVLKRGLKPSCTIIPLMKKDHRDNLEFFLAGIGRLHLSGIDANPNALFPPVEFPAPRGTPLISPLIKWDHSLAWDVPAAEDFPNGSGSPSAAIYNIDTSSESPDHYLVDHTLDGRVLFPATGYLSIVWKTLARALGLGVEQLPVVFEDVVLHQATILPKTGTVSLEVRLLEASRAFEVSENGNLVVSGKVYQWDDPDPRLFDHPESPTPNPTEPLFLAQAEVYKELRLRGYDYGPHFQGILEASLEGDSGRLLWKDNWVSFMDTMLQMSILGSAKHGLYLPTRVTAIHIDPATHRQKLYTLQDKAQVADVVVSRWLRVTVAGGVHISGLHTESAPRRQQEQQVPILEKFCFTPHTEEGCLSERAALQEELQLCKGLVQALQTKVTQQGLKMVVPGLDGAQ
Regarding B2, in data set [2], the “specific activity reported (Pasta et al., 2007)” value is recorded as 204 mol product/(min*mol enzyme).
